Measured values as given in patent US20100119511A1 (Biogen, published 2010).
“And” between values parts separate entries of the source, which are not always exact repeats. Equal entries are not always repeated.

T1: D1-D2 Her2-Fc
T1 construct: also called MR067; ErbB2-Fc Domains 1-2; not shown: huIgG1-Fc part
T1 chain: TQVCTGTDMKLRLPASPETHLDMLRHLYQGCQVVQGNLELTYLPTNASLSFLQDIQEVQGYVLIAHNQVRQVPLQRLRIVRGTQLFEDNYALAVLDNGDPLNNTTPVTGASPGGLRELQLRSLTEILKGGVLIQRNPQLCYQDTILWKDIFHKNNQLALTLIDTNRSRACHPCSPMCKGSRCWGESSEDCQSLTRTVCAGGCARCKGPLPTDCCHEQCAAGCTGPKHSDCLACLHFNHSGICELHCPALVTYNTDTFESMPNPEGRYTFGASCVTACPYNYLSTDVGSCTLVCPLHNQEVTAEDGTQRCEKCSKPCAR

T2: D1 Her2-Fc
T2 construct: also called MR066; ErbB2-Fc Domain 1; not shown: huIgG1-Fc part
T2 chain: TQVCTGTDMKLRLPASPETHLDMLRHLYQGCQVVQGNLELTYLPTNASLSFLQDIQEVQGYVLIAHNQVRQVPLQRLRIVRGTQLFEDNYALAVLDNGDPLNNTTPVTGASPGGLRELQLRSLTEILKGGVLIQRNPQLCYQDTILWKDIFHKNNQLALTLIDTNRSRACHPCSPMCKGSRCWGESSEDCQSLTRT

B1: BIIB65B03 Fab (Fab, V domains shown)
VH: EVQLLESGGGLVQPGGSLRLSCAASGFTFSWYRMNWVRQAPGKGLEWVSSIYSSGGPTNYADSVKGRFTISRDNSQNTLYLQMNSLRAEDTAVYYCTREKPDYYDSSGYLDYWGQGTLVTVSS
VL: DIQMTQSPGTLSLSPGERSTLSCRASQSVSSSYLAWYQQKPGQAPRLLIYGASSRATGIPDRFSGSGSGTDFTLTISRLEPEDFGVYYCHQYGRPPVFGPGTKVDIK
notes: Soluble human Fab from a phagemid Fab library
B2: BIIB66A12 Fab (Fab, V domains shown)
VH: EVQLLESGGGLVQPGGSLRLSCAASGFTFSMYSMQWVRQAPGKGLEWVSVIGSSGGQTGYADSVKGRFTISRDNSKNTLYLQMNSLRAEDTAVYYCARVRDYYGSGSYYLDPWGQGTLVTVSS
VL: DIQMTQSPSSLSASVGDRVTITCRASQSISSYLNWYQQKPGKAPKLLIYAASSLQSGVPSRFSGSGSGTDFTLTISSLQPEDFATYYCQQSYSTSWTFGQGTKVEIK
notes: as for B1
B3: BIIB65H09 Fab (Fab, V domains shown)
VH: EVQLLESGGGLVQPGGSLRLSCAASGFTFSWYSMWWVRQAPGKGLEWVSSIVSSGGQTRYADSVKGRFTISRDNSKNTLYLQMNSLRAEDTAVYYCARVKGYYYYIDVWGKGTTVTVSS
VL: DIQMTQSPGTLSLSPGERATLSCRASQSVDSSYLSWYQQKPGQAPRLLIYGASTRATGIPARFSGSGSGTDFTLTVSRLEPEDFAVYYCQQHGYSSRTFGQGTKVEIK
notes: as for B1
B4: BIIB66C01 Fab (Fab, V domains shown)
VH: EVQLLESGGGLVQPGGSLRLSCAASGFTFSWYSMSWVRQAPGKGLEWVSSISSSGGPTHYADSVKGRFTISRDNSKNTLYLQMNSLRAEDTAVYYCARDSSYSGTSWGQGTLVTVSS
VL: QYELTQPPSVSGTPGQRVTISCSGSSSNIGSEYVYWFQQLPGTAPRLLIYRNDQRPSGVPDRFSGSKSGTSASLAISGLRSEDETDYYCTTWDDSLSGPVFGGGTKLTVL
notes: as for B1
B5: BIIB71F10 Fab (Fab, V domains shown)
VH: EVQLLESGGGLVQPGGSLRLSCAASGFTFSSYGMVWVRQAPGKGLEWVSSISSSGGLTWYADSVKGRFTISRDNSKNTLYLQMNSLRAEDTAVYYCASPPGIAVARDYWGQGTLVTVSS
VL: DIQMTQSPSSLSASVGDRVTITCRASQGISNYLAWYQQKPGKVPKLLIYAASTLQSGVPSRFSGSGSGTDFTLTISSLQPEDVATYYCQKYNSALLTFGGGTKVEIK
notes: Soluble human Fab; also called Fab 71F10
B6: BIIB65C10 Fab (Fab, V domains shown)
VH: EVQLLESGGGLVQPGGSLRLSCAASGFTFSYYPMMWVRQAPGKGLEWVSSIWPSGGFTKYADSVKGRFTISRDNSKNTLYLQMNSLRAEDTATYYCARVSSSSWYGYLYWGQGTLVTVSS
VL: not shown
notes: as for B1
B7: 71F10 Fab-hLIGHT fusion with the (G4S)4 linker (BIIB71F10-132) (other)
heavy: EVQLLESGGGLVQPGGSLRLSCAASGFTFSSYGMVWVRQAPGKGLEWVSSISSSGGLTWYADSVKGRFTISRDNSKNTLYLQMNSLRAEDTAVYYCASPPGIAVARDYWGQGTLVTVSSASTKGPSVFPLAPSSKSTSGGTAALGCLVKDYFPEPVTVSWNSGALTSGVHTFPAVLQSSGLYSLSSVVTVPSSSLGTQTYICNVNHKPSNTKVDKKVEPKSCDKGGGGSGGGGSGGGGSGGGGSNPAAHLTGANSSLTGSGGPLLWETQLGLAFLRGLSYHDGALVVTKAGYYYIYSKVQLGGVGCPLGLASTITHGLYKRTPRYPEELELLVSQQSPCGRATSSSRVWWDSSFLGGVVHLEAGEEVVVRVLDERLVRLRDGTRSYFGAFMV
light: DIQMTQSPSSLSASVGDRVTITCRASQGISNYLAWYQQKPGKVPKLLIYAASTLQSGVPSRFSGSGSGTDFTLTISSLQPEDVATYYCQKYNSALLTFGGGTKVEIKRTVAAPSVFIFPPSDEQLKSGTASVVCLLNNFYPREAKVQWKVDNALQSGNSQESVTEQDSKDSTYSLSSTLTLSKADYEKHKVYACEVTHQGLSSPVTKSFNRGEC
notes: Fab heavy chain fused to human LIGHT extracellular portion; assembles as a trimer; also called 71F10 Fab-(G4S)4-LIGHT

Molecular target: T1, D1-D2 Her2-Fc
Test: ELISA, HER2 domain-Fc captured on anti-huFc, detection HRP-anti-fab
Experimental: (§1) Nunc Maxisorp ELISA plates were coated with 5 ug/ml rabbit pAbs anti-human Fc gamma in PBS overnight at 4 degrees. Plates were washed one time with PBST (PBS, 0.05% tween 20) and blocked with 1% BSA in PBS for one hour at room temperature. Plates were washed one time with PBST and incubated with 1 ug/ml HER2-Fc fusion protein for one hour. Plates were washed three times with PBST and dilutions of Fab (four 5-fold serial dilutions, starting at 1 ug/ml) in block were added and incubated for ninety minutes. Plates were washed three times with PBST and incubated with 1:2,000 HRP-labelled goat anti-human kappa (Southern Biotech cat#2060-05) and HRP-labelled goat anti-human lambda (Southern Biotech cat#2070-05) in block for one hour at room temperature. Plates were washed three times with PBST, developed with TMB solution for 5 minutes, and stopped with equal volume 1 NH₂SO₄. Absorbance values were read at 450 nm.
B1: no binding (tested: 1 ug/ml (from paragraph 380, not on the sheet)). B2: no binding (tested: 1 ug/ml (from paragraph 380, not on the sheet)). B3: no binding (tested: 1 ug/ml (from paragraph 380, not on the sheet)). B4: no binding (tested: 1 ug/ml (from paragraph 380, not on the sheet)).

Molecular target: T2, D1 Her2-Fc
Test: as above
Experimental: as §1
B1: no binding (tested: 1 ug/ml (from paragraph 380, not on the sheet)). B2: no binding (tested: 1 ug/ml (from paragraph 380, not on the sheet)). B3: no binding (tested: 1 ug/ml (from paragraph 380, not on the sheet)). B5: no binding (tested: 1 ug/ml (from paragraph 380, not on the sheet)). B4: no binding (tested: 1 ug/ml (from paragraph 380, not on the sheet)). B6: no binding (tested: 1 ug/ml (from paragraph 380, not on the sheet)).

These binders were tested against Soluble human LTBR (shuLTBR) (human, UniProt P36941 31-227, limits assumed) (assay: SEC / light scattering).
Sequence of Soluble human LTBR (shuLTBR) (P36941 31-227 limits assumed): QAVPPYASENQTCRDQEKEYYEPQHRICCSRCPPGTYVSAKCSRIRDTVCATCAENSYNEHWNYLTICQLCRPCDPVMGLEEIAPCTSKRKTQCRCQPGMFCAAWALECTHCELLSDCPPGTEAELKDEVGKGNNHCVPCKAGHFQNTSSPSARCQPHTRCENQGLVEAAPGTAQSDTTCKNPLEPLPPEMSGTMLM
Experimental: Soluble human LTBR (shuLTBR) was prepared by limited proteolytic digestion of human LTBR-Ig and purified by chromatography on protein A Sepharose and Fractogel TMAE. […] Controls with each protein were also included. The samples were analyzed by SEC using a […] column (Phenomenex) in PBS with a Waters Alliance HPLC instrument.
In the case of B7, the “stoichiometry (shuLTBR per Fab-Light trimer)” value is reported as 2 shuLTBR per trimer and 3 shuLTBR per trimer.
